This is an account of results in US20160031972A1 (XIAMEN INNOVAX BIOTECH, published 2016).

Assay [1] concerns the target T1, RSV F protein on Hep2 cells infected with RSV-A2 (immunofluorescent assay) (respiratory syncytial virus A2 strain, UniProt P03420 26-574).
T1 construct: whole, on cells
The assay can be described thus: immunofluorescence on RSV-A2-infected Hep2 cells, confocal microscopy.

The target of assay [2] is T2, post-F protein (RSV-A2 F protein with P102A, I379V, M447V and fusion peptide positions 137-146 removed, … (respiratory syncytial virus, RSV-A2, UniProt P03420 26-524)).
T2 construct: Signal peptide, furin processing and the residue of the HRV 3C site left after cleavage are not described; also called RSV-post F; post-fusion F
The experiment in a line: hybridoma screening, RSV-post F enzyme-linked immunosorbent assay.

Assay [3] concerns the target T3, RSV F protein in RSV-A2 virus preparation (Western Blot sample) (respiratory syncytial virus A2 strain, UniProt P03420 26-574).
T3 construct: Loaded boiled (denatured) or non-boiled (non-denatured); also called RSV A2 strain
The assay can be described thus: Western Blot, non-boiled sample.

B1: monoclonal antibody 5C4 (antibody, V domains shown)
VH: EVQLQQSGAELVKPGASVKLSCTASGFNIKDTFFHWVKQRPEQGLEWIGRIDPADGHTKYDPKFQGKATITADTSSNTAFLQLSSLTSEDTAVYYCATTITAVVPTPYNAMDYWGQGTSVTVSS
VL: DIVLTQSPASLAVSLGQRTTISCRASESVDSFDNSFIHWYQQKPGQPPKLLIFLASSLESGVPARFSGSGSRTDFTLTIDPVEADDAATYYCQQSNEDPFTFGSGTKLEIKR
notes: Mouse hybridoma antibody purified from ascites; kappa light chain; also called 5C4 monoclonal antibody; 5C4 antibody
For the molecule B1, the binding result in assay [1] was “binds”; in assay [2] it was “no binding”; in assay [3], “binds”.
